Consider one substance from article PMC10759225.

This assay addresses TAX peptide, a peptide of the human T-cell leukemia virus type I peptide on HLA-A2 (human). Nature of the assay: data from Cole et al. (2013); the method is not told in this article; the reference is the unmutated A6-TCR.

On to “A6-TCR with mutated CDR3 beta loop (PDB 4FTV)”, for which the fold enhancement of binding over the parent A6-TCR turned out to be 1000 fold.
